Data: the supplement of paper PMC7877785
± gives the uncertainty stated by the source.

Assay: self-splicing fitness, log relative to wild type (ln ratio); higher = more splicing; Tetrahymena group I intron in knt gene, E. coli kanamycin selection, DiMSum; sequences stand for … in CUCUCU…GGAGGGAAAAGUUAUCAGGCAUGCACCUGGUAGCUAGUCUUUAAACCAAUAGAUUGCAUCGGUUUAAAAGGCAAGACCGUCAAAUUGCGGGAAAGGGGUCAACAGCCGUUCAGUACCAAGUCUCAGGGGAAACUUUGAGAUGGCCUUGCAAAGGGUAUGGUAAUAAGCUGACGGACAUGGUCCUAACCACGCAGCCAAGUCCUAAGUCAACAGAUCUUCUGUUGAUAUGGAUGCAGUUCACAGACUAAAUGUCGGUCGGGGAAGAUGUAUUCUUCUCAUAAGAUAUAGUCGGACCUCUCCUUAAUGGGAGCUAGCGGAUGAAGUGAUGCAACACUGGAGCCGCUGGGAACUAAUUUGUAUGCGAAAGUAUAUUGAUUAGUUUUGGAGUACUCGUGGUCG
Method in brief: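 Library with all eight P1ex-region intron nucleotides randomised, intron inside the knt kanamycin-resistance gene on pET-22b(+), in E. coli BL21(DE3). Cells grew overnight at 37°C or 30°C on LB agar with or without 25 μg/mL kanamycin (plus 100 μg/mL carbenicillin, 50 μM IPTG, 0.2% rhamnose), in six replicate transformations. Pooled colonies were amplicon-sequenced on Illumina HiSeq 2500. DiMSum fitness is the error-weighted combination of wild-type-normalised replicate fold changes, kanamycin versus none.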

Sequence | self-splicing fitness (ln) (30 °C) | self-splicing fitness (ln) (37 °C)
AAAUAGCAAUAUUACGUUCU | -0.419 ± 0.069 | -0.584 ± 0.091
AAAUAGCAAUAUUACGUUUU | -2.81 ± 0.11 | -1.05 ± 0.099
AACAAGCAAUAUUACGAACA | -1.16 ± 0.11 | -0.392 ± 0.11
AACAAGCAAUAUUACGAACG | -1.33 ± 0.11 | -0.418 ± 0.13
AACAAGCAAUAUUACGACGU | 0.394 ± 0.063 | 0.441 ± 0.07
AACAAGCAAUAUUACGACUC | -0.216 ± 0.072 | 0.125 ± 0.097
AACAAGCAAUAUUACGAGUC | -3.19 ± 0.12 | -1.89 ± 0.14
AACAAGCAAUAUUACGAUAU | -1.42 ± 0.098 | -1.03 ± 0.12
AACAAGCAAUAUUACGAUCA | -0.766 ± 0.058 | -0.628 ± 0.078
AACAAGCAAUAUUACGCAAU | -1.37 ± 0.096 | -1.09 ± 0.12
AACAAGCAAUAUUACGCACU | 0.195 ± 0.069 | -0.195 ± 0.083
AACAAGCAAUAUUACGCAGC | -3.18 ± 0.16 | -2.53 ± 0.18
AACAAGCAAUAUUACGCGAG | -1.58 ± 0.072 | -0.559 ± 0.067
AACAAGCAAUAUUACGCUCC | -2.2 ± 0.12 | -0.601 ± 0.13
AACAAGCAAUAUUACGCUUC | -4.57 ± 0.3 | -2.75 ± 0.26
AACAAGCAAUAUUACGGAAC | -3.32 ± 0.16 | -1.73 ± 0.15
AACAAGCAAUAUUACGGCCA | -0.5 ± 0.077 | -0.412 ± 0.092
AACAAGCAAUAUUACGGCCG | -0.739 ± 0.12 | 0.121 ± 0.15
AACAAGCAAUAUUACGGGUG | -0.579 ± 0.047 | -0.604 ± 0.064
AACAAGCAAUAUUACGGGUU | -2.34 ± 0.11 | -2.91 ± 0.16
AACAAGCAAUAUUACGGUAA | -1.83 ± 0.1 | -1.04 ± 0.096
AACAAGCAAUAUUACGGUAU | -1.61 ± 0.075 | -1.16 ± 0.098
AACAAGCAAUAUUACGGUCC | -1.36 ± 0.063 | -0.282 ± 0.072
AACAAGCAAUAUUACGUACC | -1.03 ± 0.083 | 0.125 ± 0.13

Sequence | self-splicing fitness (ln) (30 °C) | self-splicing fitness (ln) (37 °C)
AACAAGCAAUAUUACGUCUU | -0.312 ± 0.057 | 0.0818 ± 0.077
AACAAGCAAUAUUACGUGCG | -1.17 ± 0.05 | -0.476 ± 0.064
AACAAGCAAUAUUACGUGGA | -2.59 ± 0.11 | -1.51 ± 0.094
AACAAGCAAUAUUACGUGUG | -1.69 ± 0.043 | -0.657 ± 0.05
AACCAGCAAUAUUACGAAAG | -3.21 ± 0.16 | -1.99 ± 0.19
AACCAGCAAUAUUACGAACU | -0.369 ± 0.079 | 0.35 ± 0.1
AACCAGCAAUAUUACGAAUA | -2.32 ± 0.13 | -1.71 ± 0.097
AACCAGCAAUAUUACGACGC | -0.537 ± 0.082 | -0.0547 ± 0.098
AACCAGCAAUAUUACGAGGA | -2.25 ± 0.13 | -1.51 ± 0.11
AACCAGCAAUAUUACGCAGG | -4.46 ± 0.2 | -2.28 ± 0.14
AACCAGCAAUAUUACGCCAA | -2.55 ± 0.14 | -1.67 ± 0.16
AACCAGCAAUAUUACGCUCG | -0.795 ± 0.075 | 0.274 ± 0.097
AACCAGCAAUAUUACGGACC | 0.38 ± 0.1 | -0.273 ± 0.11
AACCAGCAAUAUUACGGCCC | 0.0145 ± 0.12 | 0.0337 ± 0.099
AACCAGCAAUAUUACGGCGC | -0.046 ± 0.068 | -0.103 ± 0.086
AACCAGCAAUAUUACGGCUA | -0.197 ± 0.048 | 0.0992 ± 0.063
AACCAGCAAUAUUACGGGAA | -1.76 ± 0.073 | -1.01 ± 0.065
AACCAGCAAUAUUACGGGGC | -3.59 ± 0.16 | -2.64 ± 0.16
AACCAGCAAUAUUACGGGUC | -3.62 ± 0.13 | -2.68 ± 0.15
AACCAGCAAUAUUACGGUUU | -3.26 ± 0.12 | -2.96 ± 0.17
AACCAGCAAUAUUACGUAUC | -2.57 ± 0.097 | -1.39 ± 0.1
AACCAGCAAUAUUACGUCGC | -2.34 ± 0.077 | -0.689 ± 0.085
AACCAGCAAUAUUACGUGCC | -1.44 ± 0.063 | -0.956 ± 0.079
AACCAGCAAUAUUACGUGCG | -0.832 ± 0.053 | -0.365 ± 0.064

Sequence | self-splicing fitness (ln) (30 °C) | self-splicing fitness (ln) (37 °C)
AACCAGCAAUAUUACGUUAG | -3.68 ± 0.11 | -2.44 ± 0.11
AACCAGCAAUAUUACGUUUU | -2.11 ± 0.057 | -1.27 ± 0.065
AACGAGCAAUAUUACGACAG |  | -2.37 ± 0.28
AACGAGCAAUAUUACGACCU | -1.02 ± 0.22 | -0.178 ± 0.2
AACGAGCAAUAUUACGACUU | -0.000737 ± 0.11 | -0.7 ± 0.12
AACGAGCAAUAUUACGAGAG | -3.41 ± 0.15 | -1.98 ± 0.16
AACGAGCAAUAUUACGAGCA | -2.69 ± 0.18 | -1.97 ± 0.22
AACGAGCAAUAUUACGAGCG | -2.76 ± 0.19 | -2.55 ± 0.2
AACGAGCAAUAUUACGAGGC | -2.92 ± 0.29 | -2.97 ± 0.48
AACGAGCAAUAUUACGAGUG | -1.64 ± 0.097 | -0.602 ± 0.12
AACGAGCAAUAUUACGAUUA | -1.89 ± 0.16 | -1.02 ± 0.16
AACGAGCAAUAUUACGCGAG | -2.75 ± 0.24 | -2.61 ± 0.25
AACGAGCAAUAUUACGCGUG | -1.89 ± 0.094 | -1.12 ± 0.099
AACGAGCAAUAUUACGCUGC | -3.01 ± 0.26 | -3.06 ± 0.35
AACGAGCAAUAUUACGGAGA | -3.61 ± 0.26 | -2.8 ± 0.28
AACGAGCAAUAUUACGGGCU | -3.63 ± 0.23 | -2.49 ± 0.22
AACGAGCAAUAUUACGGGUC | -3.17 ± 0.22 | -1.65 ± 0.2
AACGAGCAAUAUUACGGUAU | -4.43 ± 0.22 | -1.85 ± 0.12
AACGAGCAAUAUUACGGUUG | -3.98 ± 0.15 | -2.37 ± 0.13
AACGAGCAAUAUUACGUACC | -2.91 ± 0.23 | -1.9 ± 0.2
AACGAGCAAUAUUACGUAGG | -3.93 ± 0.21 | -2.49 ± 0.18
AACGAGCAAUAUUACGUAUC | -3.69 ± 0.4 | -3.55 ± 0.46
AACGAGCAAUAUUACGUCAG | -3.08 ± 0.29 | -2.97 ± 0.34
AACGAGCAAUAUUACGUUAC | -3.45 ± 0.29 | -0.155 ± 0.15

Sequence | self-splicing fitness (ln) (30 °C) | self-splicing fitness (ln) (37 °C)
AACGAGCAAUAUUACGUUGA | -3.48 ± 0.21 | -3.32 ± 0.22
AACGAGCAAUAUUACGUUUG | -3.6 ± 0.2 | -2.45 ± 0.28
AACUAGCAAUAUUACGACAG | -1.7 ± 0.14 | -0.514 ± 0.13
AACUAGCAAUAUUACGACCC |  | -0.568 ± 0.41
AACUAGCAAUAUUACGAGCU | -1.5 ± 0.095 | -0.511 ± 0.11
AACUAGCAAUAUUACGAGUA | -0.62 ± 0.07 | -0.322 ± 0.083
AACUAGCAAUAUUACGAUAC | -3.15 ± 0.23 | -1.24 ± 0.34
AACUAGCAAUAUUACGAUUC | -1.81 ± 0.094 | -0.882 ± 0.11
AACUAGCAAUAUUACGCCGC | -2.1 ± 0.23 | 
AACUAGCAAUAUUACGCGCG | -0.639 ± 0.082 | -0.378 ± 0.12
AACUAGCAAUAUUACGCGGU | -4.59 ± 0.29 | -0.982 ± 0.17
AACUAGCAAUAUUACGCUAC | -3.46 ± 0.22 | -1.34 ± 0.14
AACUAGCAAUAUUACGCUCG | -0.797 ± 0.1 | -0.51 ± 0.13
AACUAGCAAUAUUACGGCGC | -0.8 ± 0.13 | -0.34 ± 0.16
AACUAGCAAUAUUACGGCUA | -1.08 ± 0.11 | -1.22 ± 0.11
AACUAGCAAUAUUACGGCUU | 0.0162 ± 0.065 | -0.0298 ± 0.091
AACUAGCAAUAUUACGGGUG | -0.377 ± 0.049 | -0.0736 ± 0.07
AACUAGCAAUAUUACGGUUG | -1.36 ± 0.1 | -0.299 ± 0.11
AACUAGCAAUAUUACGUACG | -1.15 ± 0.079 | -0.237 ± 0.096
AACUAGCAAUAUUACGUAGU | -2.24 ± 0.084 | -1.39 ± 0.12
AACUAGCAAUAUUACGUAUA | -2.05 ± 0.11 | -0.938 ± 0.12
AACUAGCAAUAUUACGUCAA | -2.66 ± 0.18 | -2.13 ± 0.15
AACUAGCAAUAUUACGUCUA | -0.702 ± 0.097 | -0.347 ± 0.1
AACUAGCAAUAUUACGUGUA | -2.2 ± 0.09 | -0.888 ± 0.09
